Data reported in US12247244B2, “Membrane protein activity measurement method” (THE UNIVERSITY OF TOKYO, priority 2018, dated 2025).

Molecular target: T1, human Flt3 (hFlt3) (Homo sapiens, UniProt P36888)
T1 construct: expressed in transfected cells; host or cells: NCP19 cells (HeLa-derived knock-in clone)
T1 sequence (P36888 27-993): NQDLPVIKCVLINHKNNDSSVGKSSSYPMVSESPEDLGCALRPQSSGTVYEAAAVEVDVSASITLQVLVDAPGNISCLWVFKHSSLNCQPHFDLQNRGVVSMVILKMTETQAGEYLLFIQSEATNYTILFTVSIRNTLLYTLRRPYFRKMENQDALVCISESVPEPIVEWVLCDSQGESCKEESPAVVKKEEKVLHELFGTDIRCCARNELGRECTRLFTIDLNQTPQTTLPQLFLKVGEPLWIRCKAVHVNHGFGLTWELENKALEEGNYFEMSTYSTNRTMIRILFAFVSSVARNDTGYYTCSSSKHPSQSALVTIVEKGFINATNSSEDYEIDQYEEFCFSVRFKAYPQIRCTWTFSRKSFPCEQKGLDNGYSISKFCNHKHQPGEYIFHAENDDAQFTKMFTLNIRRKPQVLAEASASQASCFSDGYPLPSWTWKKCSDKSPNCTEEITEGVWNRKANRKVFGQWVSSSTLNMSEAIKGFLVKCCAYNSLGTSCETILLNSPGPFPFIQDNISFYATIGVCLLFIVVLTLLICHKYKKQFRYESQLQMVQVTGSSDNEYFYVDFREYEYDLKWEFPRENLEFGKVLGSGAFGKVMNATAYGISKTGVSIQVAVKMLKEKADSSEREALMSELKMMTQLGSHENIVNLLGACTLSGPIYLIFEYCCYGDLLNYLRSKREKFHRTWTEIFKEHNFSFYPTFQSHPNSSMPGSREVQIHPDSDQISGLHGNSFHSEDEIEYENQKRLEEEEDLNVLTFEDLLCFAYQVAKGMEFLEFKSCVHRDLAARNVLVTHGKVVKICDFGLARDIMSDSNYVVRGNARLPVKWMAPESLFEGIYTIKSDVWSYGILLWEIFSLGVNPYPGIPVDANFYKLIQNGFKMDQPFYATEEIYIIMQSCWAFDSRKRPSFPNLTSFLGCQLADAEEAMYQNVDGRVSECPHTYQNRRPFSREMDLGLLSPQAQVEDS
Experiment: NCP19 knock-in reporter cell assay (UAS-luciferase) for hFlt3 activation
Type: cell-based
Settings: NCP19 cells transfected with hFlt3; ligand 30, 3, 0.3, 0.03, 0 ng/ml; stimulation for 6 hours; FIG. 12
Experimental: • Used cells: NCP19 • Used plasmids: • (1) a plasmid that expresses hFlt3 (an hFlt3 expression plasmid); and • (2) UAS-luciferase. • Day 1: NCP19 cells were seeded on a 96-well plate at a density of 24000 cells/well. • Day 2: Within 24 hours after the seeding on the 96-well plate, 90 ng of DNA per well (a plasmid cocktail consisting of 60 ng of hFlt3+30 ng of UAS-luciferase) was transfected into the cells according to a lipofection method. • Day 3: Twenty-four hours after the transfection, the cells were stimulated by a ligand (Flt3-ligand: at concentrations of 30, 3, 0.3, 0.03, and 0 ng/ml). After the stimulation for 6 hours, a culture supernatant was discarded, and a substrate for luciferase was added, and then, luminescence signals were measured using a plate reader.

B1: Flt3-ligand: ligand used to stimulate the receptor tyrosine kinase hFlt3 (protein)
chain: TQDCSFQHSPISSDFAVKIRELSDYLLQDYPVTVASNLQDEELCGGLWRLVLAQRWMERLKTVAGSKMQGLLERVNTEIHFVTKCAFQPPPSCLRFVQTNISRLLQETSEQLVALKPWITRQNFSRCLELQCQPDSSTLPPPWSPRPLEATAPTA
- activation of hFlt3, luminescence of luciferase: detected as the luminescence of luciferase
